B1: FljB-HBc fusion protein, self-assembled into FH VLPs (other)
chain: MDIDPYKEFGASVELLSFLPSDFFPSIRDLLDTASALYREALESPEHCSPHHTALRQAILCWGELMNLATWVGSNLEDPAGGGGSGGGGSAQVINTNSLSLLTQNNLNKSQSALGTAIERLSSGLRINSAKDDAAGQAIANRFTANIKGLTQASRNANDGISIAQTTEGALNEINNNLQRVRELAVQSANSTNSQSDLDSIQAEITQRLNEIDRVSGQTQFNGVKVLAQDNTLTIQVGANDGETIDIDLKQINSQTLGLDSLNVQKAYDVKDTAVTTKAYANNGTTLDVSGLDDAAIKAATGGTNGTASVTGGAVKFDADNNKYFVTIGGFTGADAAKNGDYEVNVATDGTVTLAAGATKTTMPAGATTKTEVQELKDTPAVVSADAKNALIAGGVDATDANGAELVKMSYTDKNGKTIEGGYALKAGDKYYAADYDEATGAIKAKTTSYTAADGTTKTAANQLGGVDGKTEVVTIDGKTYNASKAAGHDFKAQPELAEAAAKTTENPLQKIDAALAQVDALRSDLGAVQNRFNSAITNLGNTVNNLSEARSRIEDSDYATEVSNMSRAQILQQAGTSVLAQANQVPQNVLSLLRGGGGSGGGGSSRELVVSYVNVNMGLKIRQLLWFHISCLTFGRETVLEYLVSFGVWIRTPPAYRPPNAPILSTLPETTVVLEHHHHHH

How the values were obtained:
[1] = molecular target: murine TLR5 (HEK293 cells co-transfected with murine TLR5 and SEAP reporter gene) (murine) (UniProt Q9JLF7); experiment: cell-based or functional assay
Sequence of murine TLR5 (HEK293 cells co-transfected with murine TLR5 and SEAP reporter gene) (murine) (Q9JLF7 27-859): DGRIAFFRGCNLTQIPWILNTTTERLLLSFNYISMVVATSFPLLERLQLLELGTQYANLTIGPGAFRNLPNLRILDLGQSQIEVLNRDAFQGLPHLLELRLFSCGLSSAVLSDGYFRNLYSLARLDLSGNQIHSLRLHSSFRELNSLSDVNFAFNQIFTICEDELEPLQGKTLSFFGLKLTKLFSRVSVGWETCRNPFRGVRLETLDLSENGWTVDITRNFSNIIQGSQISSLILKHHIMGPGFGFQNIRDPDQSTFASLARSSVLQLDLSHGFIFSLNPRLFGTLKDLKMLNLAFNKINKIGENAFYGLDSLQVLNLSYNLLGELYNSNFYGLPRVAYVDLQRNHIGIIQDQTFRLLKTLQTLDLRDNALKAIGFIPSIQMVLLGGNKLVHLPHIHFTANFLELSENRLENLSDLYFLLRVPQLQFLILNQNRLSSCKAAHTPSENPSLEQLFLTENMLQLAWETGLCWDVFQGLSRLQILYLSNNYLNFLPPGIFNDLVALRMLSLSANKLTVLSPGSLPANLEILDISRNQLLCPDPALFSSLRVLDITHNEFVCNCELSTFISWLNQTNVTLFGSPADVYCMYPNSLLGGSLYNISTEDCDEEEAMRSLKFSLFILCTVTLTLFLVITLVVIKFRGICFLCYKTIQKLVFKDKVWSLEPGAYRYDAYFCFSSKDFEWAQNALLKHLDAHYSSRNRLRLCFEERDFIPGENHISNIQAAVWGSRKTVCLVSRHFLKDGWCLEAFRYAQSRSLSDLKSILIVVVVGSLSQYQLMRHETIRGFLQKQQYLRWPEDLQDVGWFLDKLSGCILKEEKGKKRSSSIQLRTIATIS

[2] = molecular target: murine TLR5 (HEK293 cells co-transfected with murine TLR5 and SEAP reporter gene) (murine, UniProt Q9JLF7 27-859); experiment: cell-based or functional assay
Sequence of murine TLR5 (HEK293 cells co-transfected with murine TLR5 and SEAP reporter gene) (Q9JLF7 27-859): as above

Row | Molecule | lowest concentration to significantly activate TLR5 (SEAP reporter, OD620nm) [1] | fold reduction of TLR5 activation ability against FLA-ST [2] | fold reduction of TLR5 activation ability against FljB [2]
1 | FLA-ST (ultrapure FliC purified from S. Typhimurium, Invivogen) (from UniProt P06179 2-495) (ligand) | 40 pM |  | 
2 | Recombinant FljB (phase 2 flagellin of S. Typhimurium strain LT2) (from UniProt P52616 1-506) (ligand) | 8 pM |  | 
3 | B1 |  | 25 fold | > 100 fold
